In assay [1] the target is human CLDN6, endogenously expressed on cancer cell lines (human) (UniProt P56747). As to the kind of experiment: flow cytometry on UMUC4 cells (Positive Cell Line), secondary antibody alone; the same number stands under the 0.1µg and the 1µg head. For orientation: In flow cytometry, cells or beads pass a laser one at a time.
Assay [2] concerns the target human CLDN6 fused to GFP, expressed on engineered HEK293T cells (human) (UniProt P56747). As to the kind of experiment: FACS on 293T CLDN6 mGFP Clone A11 cells, secondary antibody only; number from the data table under the bars.
The target of assay [3] is human CLDN6, endogenously expressed on cancer cell lines (human) (UniProt P56747). As to the kind of experiment: FACS, ARK2 cells, secondary antibody alone (negative control, background; column 1.5 ug).
The target in assay [4] is T1, mouse CLDN6 fused to GFP, expressed on engineered HEK293T cells (mouse) (UniProt Q9Z262).
T1 sequence (looked up): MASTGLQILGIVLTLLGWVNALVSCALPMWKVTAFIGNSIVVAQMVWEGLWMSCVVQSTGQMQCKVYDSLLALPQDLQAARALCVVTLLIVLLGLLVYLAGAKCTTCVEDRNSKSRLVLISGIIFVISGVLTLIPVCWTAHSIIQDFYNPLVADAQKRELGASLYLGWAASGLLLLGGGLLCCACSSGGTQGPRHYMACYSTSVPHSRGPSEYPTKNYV
As to the kind of experiment: FACS, 293T clone with mouse CLDN6, secondary antibody alone (negative control, background).

Assay [5] addresses human CLDN6, endogenously expressed on cancer cell lines (human) (UniProt P56747). As to the kind of experiment: FACS, OVCA429 cells, secondary antibody alone (negative control, background; column 1.5 ug).
Assay [6] shares this target. Briefly: FACS on OVCA429 cells, sample 1: no 1o, 2nd antibody NBP1-51902, 2o wash 2x.
Assay [7] has as its target human CLDN6 fused to GFP, expressed on engineered HEK293T cells (human) (UniProt P56747). As to the kind of experiment: FACS, 293T clone with human CLDN6, secondary antibody alone (negative control, background; column 1.5 ug Ab).
For assay [8] the target is unchanged. As to the kind of experiment: flow cytometry on HEK293T CLDN6-mGFP A11 cells (Positive Artificial OE Cell Line), secondary antibody alone; the same number stands under the 0.1µg and the 1µg head.
The target in assay [9] is human CLDN6, endogenously expressed on cancer cell lines (human) (UniProt P56747). Briefly: FACS on ARK2 cells, secondary antibody only; number from the data table under the bars.
For assay [10], the target named is human CLDN6 fused to GFP, expressed on engineered HEK293T cells (human) (UniProt P56747). As to the kind of experiment: FACS, 293T clone with human CLDN6, secondary antibody alone (negative control, background; column 0.3 ug Ab).
For assay [11], the target named is human CLDN6, endogenously expressed on cancer cell lines (human) (UniProt P56747). Briefly: FACS, ARK2 cells, secondary antibody alone (negative control, background; column 0.3 ug).

Chain of human CLDN6, endogenously expressed on cancer cell lines (human) (P56747 whole entry, the tested form may be a part): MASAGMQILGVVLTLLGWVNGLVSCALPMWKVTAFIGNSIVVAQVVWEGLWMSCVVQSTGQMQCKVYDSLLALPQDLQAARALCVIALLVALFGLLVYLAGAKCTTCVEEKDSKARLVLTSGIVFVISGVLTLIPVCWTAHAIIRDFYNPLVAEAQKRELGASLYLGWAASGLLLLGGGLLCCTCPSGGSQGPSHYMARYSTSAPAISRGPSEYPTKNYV

As for “2nd Ab only (secondary detection antibody alone, negative control)”, the flow cytometry signal in assay [1] amounted to 1110; in [8], 1240. Also, the FL4H Singlets in Viable cells in assay [2] stood at 9420; in [9], 9130. For the same substance, the FACS signal in [3] amounted to 1350; in [4], 1060; in assay [5], 886; in [7] it was 768; in assay [10] it was 768; in [11], 1350. Also, in [6], the Dylight 649 Signal by C6 was 1210.

(Values after patent US20220177583A1.)
